Drawing on article doi:10.1101/416032, this text covers Kd for two substances.

As a reminder, the Kd is the constant that tells how readily two partners part at equilibrium. Read a high Kd as lower affinity.

The experiment addresses BG505.SOSIP.664-AviB (HIV-1 (clade A, BG505)) (UniProt Q2N0S6). The experiment can be described thus: BLI. (In BLI a coated tip is dipped into the sample, and binding shifts an interference pattern.)

Some results are limits rather than exact numbers.

The substance BF520.1 naïveVHmatureVK mAb (antibody) showed a Kd of less than 0.001 nM.

With BF520.1 matureVHnaïveVK mAb (antibody), the Kd was determined as 8.95 nM.
